In EP4663662A1 (Shanghai Qilu Pharmaceutical Research and Development …, dated 2025):
Changes are numbered by the printed parent chain. Like-named read-outs stand apart in the source and are kept apart here.

Key:
human BCMA [1] = molecular target: T1, human BCMA (human, UniProt Q02223 1-184); experiment: flow cytometry, human BCMA-CHOK1 cells
T1 construct: On transfected CHOK1 cells; also called Human BCMA-CHOK1 cell line; Human BCMA CHOK1
T1 sequence: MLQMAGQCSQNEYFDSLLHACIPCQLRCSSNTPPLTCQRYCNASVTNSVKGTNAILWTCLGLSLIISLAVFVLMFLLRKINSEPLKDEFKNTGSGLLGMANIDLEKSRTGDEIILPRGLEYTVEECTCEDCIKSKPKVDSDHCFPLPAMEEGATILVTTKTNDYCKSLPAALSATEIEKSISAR

cynomolgus monkey BCMA [2] = molecular target: T2, cynomolgus monkey BCMA (cynomolgus monkey, UniProt Q02223 1-184 (human entry)); experiment: flow cytometry, cynomolgus BCMA-CHOK1 cells
T2 construct: On transduced CHOK1 cells; also called cyno-BCMA; Cynomolgus monkey BCMA-CHOK1 cell line
T2 sequence (Q02223 other isoform, or with tags, fused parts or gaps): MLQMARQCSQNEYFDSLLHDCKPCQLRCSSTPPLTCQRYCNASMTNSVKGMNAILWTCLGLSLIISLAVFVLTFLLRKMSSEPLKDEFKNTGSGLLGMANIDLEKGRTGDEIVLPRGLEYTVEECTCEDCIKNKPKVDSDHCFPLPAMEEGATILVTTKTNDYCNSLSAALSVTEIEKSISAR

human BCMA [3] = molecular target: T1, human BCMA; experiment: flow cytometry, human BCMA-CHOK1 cells; remark: listed apart in the source
cynomolgus monkey BCMA [4] = molecular target: T2, cynomolgus monkey BCMA; experiment: flow cytometry, cynomolgus BCMA-CHOK1 cells; remark: listed apart in the source
human BCMA [5] = molecular target: T1, human BCMA; experiment: flow cytometry, human BCMA-CHOK1 cells; remark: listed apart in the source
cynomolgus monkey BCMA [6] = molecular target: T2, cynomolgus monkey BCMA; experiment: flow cytometry, cynomolgus BCMA-CHOK1 cells; remark: listed apart in the source

B1: 19CH-16 anti-BCMA chimeric antibody derived from mouse hybridoma (antibody, IgG1, V domains shown)
VH: QGQMQQSGAELVKPGTSVKLSCKTSGFTFRSSYISWLQQKPGQSLEWIAWIYAGSGNTDYNQKFTGKAQLTVDTSSSTAYMQFSSLTTEDSAIYYCARHYDPPHYFDYWGQGTTLTVSS
VL: QIVLTQSPAIMSASPGEKVTMTCSASSGVSHMHWYQQKSGTSPKRWIYDTSKLTSGVPTRFSGTGSGTSYSLSISSMEAEDAATYYCQQWSRNPWTFGGGTKLEIK
Work on B1 yielded an EC50 (human BCMA [1]) of 0.885 nM and an EC50 (cynomolgus monkey BCMA [2]) of 1.22 nM.

B2: 19CH-16H2L2 humanized anti-BCMA antibody (antibody, IgG1, V domains shown)
VH: QVQLVQSGAEVKKPGASVKVSCKASGFTFRSSYISWVRQAPGQGLEWIAWIYAGSGNTDYNQKFTGRVTMTVDTSTSTVYMELSSLRSEDTAVYYCARHYDPPHYFDYWGQGTLVTVSS
VL: DIQLTQSPSSLSASVGDRVTITCSASSGVSHMHWYQQKPGKAPKRWIYDTSKLTSGVPSRFSGSGSGTDFTLTISSLQPEDFATYYCQQWSRNPWTFGQGTKVEIK
Binder B2 has an EC50 (human BCMA [3]) of 2.13 nM and an EC50 (cynomolgus monkey BCMA [4]) of 4.82 nM.

B3: 19CH-16H2L2-NA humanized anti-BCMA antibody variant (antibody, IgG1, V domains shown)
VH: B2 VH with T58A
VL: B2 VL
Binder B3 has an EC50 (human BCMA [5]) of 2.15 nM and an EC50 (cynomolgus monkey BCMA [6]) of 5.86 nM.
